B1: Somatic embryogenesis receptor kinase 2 (Arabidopsis thaliana (Mouse-ear cress)), Q9XIC7 (parent)
chain: MGRKKFEAFGFVCLISLLLLFNSLWLASSNMEGDALHSLRANLVDPNNVLQSWDPTLVNPCTWFHVTCNNENSVIRVDLGNADLSGQLVPQLGQLKNLQYLELYSNNITGPVPSDLGNLTNLVSLDLYLNSFTGPIPDSLGKLFKLRFLRLNNNSLTGPIPMSLTNIMTLQVLDLSNNRLSGSVPDNGSFSLFTPISFANNLDLCGPVTSRPCPGSPPFSPPPPFIPPPIVPTPGGYSATGAIAGGVAAGAALLFAAPALAFAWWRRRKPQEFFFDVPAEEDPEVHLGQLKRFSLRELQVATDSFSNKNILGRGGFGKVYKGRLADGTLVAVKRLKEERTPGGELQFQTEVEMISMAVHRNLLRLRGFCMTPTERLLVYPYMANGSVASCLRERPPSQLPLAWSIRQQIALGSARGLSYLHDHCDPKIIHRDVKAANILLDEEFEAVVGDFGLARLMDYKDTHVTTAVRGTIGHIAPEYLSTGKSSEKTDVFGYGIMLLELITGQRAFDLARLANDDDVMLLDWVKGLLKEKKLEMLVDPDLQSNYTEAEVEQLIQVALLCTQSSPMERPKMSEVVRMLEGDGLAEKWDEWQKVEVLRQEVELSSHPTSDWILDSTDNLHAMELSGPR
partner: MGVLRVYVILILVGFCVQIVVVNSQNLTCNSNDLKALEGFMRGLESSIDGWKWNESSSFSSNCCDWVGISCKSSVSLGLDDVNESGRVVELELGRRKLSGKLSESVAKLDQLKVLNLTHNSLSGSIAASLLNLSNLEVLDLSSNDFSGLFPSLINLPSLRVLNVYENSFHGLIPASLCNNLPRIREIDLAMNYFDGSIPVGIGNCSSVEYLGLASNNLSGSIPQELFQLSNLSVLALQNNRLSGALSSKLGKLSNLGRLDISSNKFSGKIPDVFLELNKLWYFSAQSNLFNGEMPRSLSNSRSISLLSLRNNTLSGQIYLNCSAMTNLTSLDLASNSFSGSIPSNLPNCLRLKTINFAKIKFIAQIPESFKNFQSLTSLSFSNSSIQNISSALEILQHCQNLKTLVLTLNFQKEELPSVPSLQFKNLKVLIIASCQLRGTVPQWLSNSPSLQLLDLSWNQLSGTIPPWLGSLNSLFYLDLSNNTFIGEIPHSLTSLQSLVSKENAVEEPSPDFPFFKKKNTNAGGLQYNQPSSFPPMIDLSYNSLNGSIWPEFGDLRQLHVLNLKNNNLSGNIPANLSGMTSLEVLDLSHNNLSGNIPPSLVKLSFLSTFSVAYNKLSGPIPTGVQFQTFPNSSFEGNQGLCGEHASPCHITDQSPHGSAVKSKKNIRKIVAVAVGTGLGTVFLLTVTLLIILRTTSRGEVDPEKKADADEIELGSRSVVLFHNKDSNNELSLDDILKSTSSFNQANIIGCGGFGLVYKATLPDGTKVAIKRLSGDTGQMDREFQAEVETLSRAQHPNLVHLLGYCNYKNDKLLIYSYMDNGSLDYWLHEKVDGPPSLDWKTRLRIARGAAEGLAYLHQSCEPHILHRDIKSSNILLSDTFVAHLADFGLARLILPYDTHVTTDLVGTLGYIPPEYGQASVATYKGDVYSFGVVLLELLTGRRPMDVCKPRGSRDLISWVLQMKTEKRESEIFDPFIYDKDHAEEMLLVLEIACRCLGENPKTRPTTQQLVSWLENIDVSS
B2: Phytosulfokine receptor 1 (Daucus carota), Q8LPB4 (parent)
chain: B1 partner
partner: B1 chain

Variants of: B1
Conditions: with pskr1_dauca PSKR

**Q.** How did the “effect of a mutation on the interaction” value turn out when T62Y was run?
**A.** The value was “disrupting interaction strength”.

Variants of: B2
Conditions: with serk2_arath SERK2, Q9XIC7

**Q.** Which “effect of a mutation on the interaction” value does the source give for F606D here?
**A.** Its value is “disrupting interaction strength”.

**Q.** Which “effect of a mutation on the interaction” value does the source give for T629Y here?
**A.** Its value is “disrupting interaction strength”.

**Q.** For S608Y, which “effect of a mutation on the interaction” value is on record?
**A.** The value was “disrupting interaction strength”.

Source: IntAct's records for PubMed 26308901
